{"source": "paper PMC3797752", "about": "(2013)", "molecular_target": "wild-type SF162 gp120 (HIV-1 SF162)", "experiment": "SPR", "data": [{"binder": "mAb VRC01 (antibody, V domains shown) VH: QVQLVQSGGQMKKPGESMRISCRASGYEFIDCTLNWIRLAPGKRPEWMGWLKPRGGAVNYARPLQGRVTMTRDVYSDTAFLELRSLTVDDTAVYFCTRGKNCDYNWDFEHWGRGTPVIVSS VL: EIVLTQSPGTLSLSPGETAIISCRTSQYGSLAWYQQRPGQAPRLVIYSGSTRAAGIPDRFSGSRWGPDYNLTISNLESGDFGVYYCQQYEFFGQGTKVQVD", "values": [{"measurement": "Kd", "value": 2.08, "unit": "nM"}]}]}
